Paper PMC8641930, “PLK1 regulates the PrimPol damage tolerance pathway during the cell cycle” (Science Advances, 2021)

B1: PrimPol CTD (PrimPol 480-560) (domain or fragment, human, UniProt Q96LW4 480-560, looked up)
chain: TTDEADETRSNETQNPHKPSPSRLSTGASADAVWDNGIDDAYFLEATEDAELAEAAENSLLSYNSEVDEIPDELIIEVLQE
notes: also called C-terminal region of WT PrimPol; PrimPol C-terminal domain; source: E. coli BL21, purified (Ni-NTA, Q-Sepharose, Superdex 75 SEC)
B2: PrimPol CTD (PrimPol 480-560) S538E (domain or fragment, human, UniProt Q96LW4 480-560, looked up)
chain: TTDEADETRSNETQNPHKPSPSRLSTGASADAVWDNGIDDAYFLEATEDAELAEAAENELLSYNSEVDEIPDELIIEVLQE
notes: Primase-Polymerase (PrimPol), human, C-terminal domain, residues 480-560, phosphomimetic mutant S538E; also called C-terminal region of mutant PrimPol; CTD S538E; source: E. coli BL21, purified (Ni-NTA, Q-Sepharose, Superdex 75 SEC)
B3: PrimPol CTD (PrimPol 480-560) S538A (domain or fragment, human, UniProt Q96LW4 480-560, looked up)
chain: TTDEADETRSNETQNPHKPSPSRLSTGASADAVWDNGIDDAYFLEATEDAELAEAAENALLSYNSEVDEIPDELIIEVLQE
notes: Primase-Polymerase (PrimPol), human, C-terminal domain, residues 480-560, phospho-null mutant S538A; also called C-terminal region of mutant PrimPol; CTD S538A; source: E. coli BL21, purified (Ni-NTA, Q-Sepharose, Superdex 75 SEC)

target: T1, RPA70N (RPA70 1-120) (UniProt P27694 1-120); assay: SEC; analytical size exclusion chromatography, Superdex 75 10/300 GL; 50 mM tris-HCl, 100 mM NaCl, 2 mM TCEP; CTD variants mixed with RPA70N at 35 uM; interaction read as a shift of the peaks relative to the single proteins; conditions: both partners purified
T1 construct: Replication Protein A 70 kDa subunit (RPA70), N-terminal domain, residues 1-120; source: E. coli BL21, purified (Ni-NTA, thrombin cleavage of the tag, Superdex 75 SEC)
T1 sequence (P27694 1-120): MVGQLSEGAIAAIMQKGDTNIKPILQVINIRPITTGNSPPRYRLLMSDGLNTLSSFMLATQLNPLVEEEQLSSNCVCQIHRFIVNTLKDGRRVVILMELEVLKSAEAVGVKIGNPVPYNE

Binding result, binds:
B1
B2
B3
